Source: patent US9539306B2, “Anti-tumor drug, medicament, composition, and use thereof” (GENE SIGNAL INTERNATIONAL SA, priority 2007, dated 2017)

Assays:
[1] = tested on: CALU-6 cells (human lung carcinoma); test: Human non-small cell lung cancer (CALU-6) xenograft model, tumor growth; type: in vivo, Swiss Nude mice; parameters: Growth inhibition based on T/C ratio, T/C ratio (%): concentration or dose not given beside the values; details: for MTV (mean tumor volume): IP Q2DX8, 168A-T2 15 mg/kg, CDDP 5 mg/kg; for MRTV (mean relative tumor volume): ratio of MTV at time t to volume at D12; for Growth inhibition based on T/C ratio, T/C ratio (%): versus vehicle group 1
Procedure: CALU-6 cells were cultured as adherent cells in complete EMEM medium (Ref. CM1MEM18-01, batch No. 462502, Eurobio, France) 10% fetal calf serum (FCS; Ref. CVFSVF00-01, batch No. S13021, Eurobio, France) under a 37° C., 5% CO2 humidified atmosphere. They were amplified in 75 cm^2-flasks to reach 90×10^6 cells.
At D0, CALU-6 cells (human lung carcinoma) were collected from 75 cm^2-flasks by removing the medium and adding 3 ml of trypsine-EDTA (Ref. CEZTDA00-0U, batch No. 633920, Eurobio, France). After 5 min of incubation at 37° C., cells had detached from the plastic and the enzymatic reaction was stopped by adding 3 ml of EMEM medium containing 10% fetal calf serum. Cells were then centrifuged at 700 g for 5 min at room temperature. They were resuspended in serum-free EMEM culture medium. Cells were counted and viability assessment by Trypan Blue exclusion (Ref. CSTCOL03-0U, batch No. 434511, Eurobio, France). The number of viable CALU-6 cells was >99%. The number of cells was then adjusted to 25×10^6 cells/ml in serum-free medium.
Thirty healthy female Swiss Nude mice were anesthetized by IP injection of Ketamine-Xylazine (80 mg/kg-12 mg/kg; Ref. K-113, Sigma, France). CALU-6 cells 5×10^6 cells/mouse in 200 μl of serum-free medium) were then implanted subcutaneously in the right flank of each mouse.
At D12 post-implantation of the CALU-6 cells, the thirty mice were randomized into […]. Tumor volumes had reached 54 to 296 mm^3 and mean tumor volumes were not statistically different between groups after randomization.
Injections in groups 1, 2, 3 and 4 were performed according to the schedules Q2DX8, i.e. 1 quantity every two days, eight times.
Ketamine/Xylazine (80 mg/kg-12 mg/kg; Ref. K-113, Sigma, France) was used to anaesthetize the animals before sacrifice by cervical dislocation. For all animals, the tumor size was measured twice a week with calipers. The tumor volume (mm^3) was measured according to the formula: (length×width^2)/2.
• Tumor growth curves were drawn using the mean tumor volumes (MTV), • Mean Relative tumor volume (MRTV) was calculated as the ratio between the MTV at time t and the volume at the time of injection (t=D12), • Tumor growth inhibition (T/C, %) was evaluated as the ratio of the median tumor volumes of treated groups versus vehicle group.
Statistical analyses of tumor volumes (TV), time to reach ‘TV’, tumor-doubling time (DT), relative tumor volume (RTV) and tumor growth inhibition (T/C) were performed for all groups. Data are expressed as mean±SD. Groups of data were normally distributed. Univariate analysis were performed to assess differences between groups. Statistical significance was then determined using the Student's t test. A P<0.05 was considered as statistically significant. The Statistical analysis was performed using XLSTAT (Addinsoft, France).

[2] = tested on: kidney cancer line (BizX); test: Inhibition of kidney cancer cell line proliferation in vitro (MTT); type: cell-based; details: 48 hours, maximum over tested concentrations
Procedure: (§1) BizX cell preparation of 50000 cells/mL was prepared in complete medium. In a 96 wells plate, […] of the cell preparation was distributed in each well and then incubated with different concentrations of 168A-T2 (each concentration was tested in triplicate). After 48 hours of incubation at 37° C., […] of MTT ([…] in water) were added in each well. After 3 hours of incubation at 37° C., the culture medium was eliminated and […] of DMSO were added to solubilize MMT crystals. The optical density (OD) at 570 nm was then measured using μQuant micro-plate reader (Bio-Tek Instrument gmbh, Colmar, France) coupled to the KC4 (Bio-Tek) software. The OD was corrected by subtracting blank-well OD values (the OD values obtained from wells without cells), and the inhibition of cell proliferation was measured relative to control (OD obtained from wells with untreated kidney tumor cells representing the maximal proliferative response, i.e. 100%).

HUVEC cells = test: Inhibition of endothelial cell proliferation in vitro (MTT); type: cell-based, human; details: comparison with literature (Binetruy-Tournaire et al.)
Procedure: HUVEC cells were cultured to confluency in complete EGM2-MV medium (Cambrex) at 37° C. and in 5% CO2 humidified atmosphere. Cells were then collected by trypsine-EDTA digestion (Versene, Eurobio). After 5 min, the enzymatic reaction was stopped by adding 3 ml of the culture medium containing 5% FCS. Cells were then centrifuged at 220 g for 10 min at room temperature, washed twice with 5 ml of culture medium, suspended in complete culture medium, counted and adjusted to 50 000 cells/ml. One hundred μL per well were then distributed to a 96-well cell culture grade micro-plate (5 000 cells/well) and incubated with different concentrations of the purified protein 168A-T2 in Tris-HCl 20 mM buffer (pH 8), containing 150 mM NaCl and urea 2M; this buffer was used as control.
After 42 hrs at 37° C., cell proliferation was measured using thiazolyl blue tetrazolium bromide (MTT) method. Briefly, MTT (Sigma) was dissolved in PBS at 5 mg/ml, the solution was filtered (0.22 μm) and 10 μl were added to each well of the 96-well micro-plates. […] The optical density (OD) at 570 nm was then measured using μQuant micro-plate reader (Bio-Tek Instrument gmbh, Colmar, France) coupled to the KC4 (Bio-Tek) software. […]

HUVEC [3] = test: Migration of human endothelial cells (wound assay); type: cell-based; details: 12, 17, 23 μg/mL (0.7, 1, 1.35 μM); 18 hours
Procedure: Cell migration was tested by the wound assay described by Sato and Rifkin (J Cell Biol. 1988; 107:1199) with few modifications. HUVEC grown in growth medium EGM-2MV (Cambrex) were seeded in 24-well plates at 80 000 cells per well in 500 μL of growth medium and grown to confluence at 37° C. in a humidified atmosphere containing 5% CO2. Cells were scrapped with a plastic tip on one line only. After wounding, the culture medium was changed for fresh medium (control, FIG. 3a) or fresh medium supplemented with: • FIG. 3b: 168A-T2 12 μg/mL (0.7 μM) • FIG. 3c: 168A-T2 17 μg/mL (1 μM) • FIG. 3d: […] 23 μg/mL (1.35 μM)
After 18 hours of culture, cells were observed and photographed under the inverted microscope (Analysis, Olympus, Rungis, France).

HUVEC [4] = test: In vitro angiogenesis of HUVEC induced by FGF2 and VEGF on Matrigel; type: cell-based, human; details: 3.5, 6.9, 13.6 μg/mL (0.2, 0.4, 0.8 μM)
Procedure: The purified proteins 168A-T2 was tested in vitro on angiogenesis of HUVEC induced by FGF2 and VEGF on Matrigel.
24 wells plates were prepared with 250 μL of BD Matrigel™/well and then incubated 30 minutes in incubator. HUVEC cells were then prepared as described in example 2 and 70 000 cells (in 0.5 mL) were seeded per well and incubated with different concentrations of the purified protein 168A-T2, in Tris-HCl 20 mM buffer (pH 8), containing 150 mM NaCl and urea 2M; this buffer was used as control: • FIG. 2a: Control (Buffer Urea 2M) • FIG. 2b: 168A-T2 3.5 μg/mL (0.2 μM) • FIG. 2c: 168A-T2 6.9 μg/mL (0.4 μM) • FIG. 2d: 168A-T2 13.6 μg/mL (0.8 μM)

lung cancer line (Calu6) = test: Inhibition of lung cancer cell line proliferation in vitro (MTT); type: cell-based, human; details: 48 hours, maximum over tested concentrations
Procedure: as §1
Calu6 cells were cultured and treated as described in example 5.

N.N.[Cl][Pt][Cl] [Cisplatin, cis-diamineplatinum(II) dichloride, reference compound]
MTV (mean tumor volume) ([1]; D12 (start of treatment)): 142.60 mm^3
MTV (mean tumor volume) ([1]; D14): 351.15 mm^3
MTV (mean tumor volume) ([1]; D16): 291.29 mm^3
MTV (mean tumor volume) ([1]; D18): 329.18 mm^3
MTV (mean tumor volume) ([1]; D20): 386.84 mm^3
MTV (mean tumor volume) ([1]; D22): 470.59 mm^3
MTV (mean tumor volume) ([1]; D24): 595.00 mm^3
MTV (mean tumor volume) ([1]; D26): 527.98 mm^3
MTV (mean tumor volume) ([1]; D28): 742.44 mm^3

B1: 168A-T2: fragment of the extracellular domain of protein 168A, SEQ ID NO:4 (108 amino acids), recombinant from E. coli, 18 kD (protein, listed as Homo sapiens)
chain: MAFDVSWFAVHSFGLDKAPVLLSSLDRKGIVTTSRRDWKSDLSLERVSVLEFLLQVHGSEDQDFGNYYCSVTPWVKSPTGSWQKEAEIHSKPVFITVKMDVLNAFKYP
inhibition of proliferation of kidney cancer line (BizX) [2]: up to 20%
potency relative to anti-VEGF mAb and/or VEGF receptor (KDR)-based identified peptides (HUVEC cells): at least 600 fold
inhibition of human endothelial cell migration (HUVEC [3]): inhibited human endothelial cells migration in a dose dependent manner
inhibition of in vitro angiogenesis (capillary tube formation) (HUVEC [4]): inhibited in vitro angiogenesis in a dose-dependent manner
inhibition of proliferation of lung cancer line (Calu6) (lung cancer line (Calu6)): up to 40%
MRTV (mean relative tumor volume) ([1]; D12 (reference time)): 1
MTV (mean tumor volume) ([1]; D12 (start of treatment)): 159.22 mm^3
MTV (mean tumor volume) ([1]; D14): 181.94 mm^3
MRTV (mean relative tumor volume) ([1]; D14): 1.15
Growth inhibition based on T/C ratio, T/C ratio (%) ([1]; D14): 37%
MTV (mean tumor volume) ([1]; D16): 264.20 mm^3
MRTV (mean relative tumor volume) ([1]; D16): 1.93
Growth inhibition based on T/C ratio, T/C ratio (%) ([1]; D16): 39%
MTV (mean tumor volume) ([1]; D18): 322.99 mm^3
MRTV (mean relative tumor volume) ([1]; D18): 2.08
Growth inhibition based on T/C ratio, T/C ratio (%) ([1]; D18): 17%
MTV (mean tumor volume) ([1]; D20): 391.90 mm^3
MRTV (mean relative tumor volume) ([1]; D20): 2.60
Growth inhibition based on T/C ratio, T/C ratio (%) ([1]; D20): 29%
MTV (mean tumor volume) ([1]; D22): 485.42 mm^3
MRTV (mean relative tumor volume) ([1]; D22): 3.47
Growth inhibition based on T/C ratio, T/C ratio (%) ([1]; D22): 16%
MTV (mean tumor volume) ([1]; D24): 642.24 mm^3
MRTV (mean relative tumor volume) ([1]; D24): 4.83
Growth inhibition based on T/C ratio, T/C ratio (%) ([1]; D24): 15%
MTV (mean tumor volume) ([1]; D26): 529.95 mm^3
MRTV (mean relative tumor volume) ([1]; D26): 4.14
Growth inhibition based on T/C ratio, T/C ratio (%) ([1]; D26): 45%
MTV (mean tumor volume) ([1]; D28): 615.96 mm^3
MRTV (mean relative tumor volume) ([1]; D28): 4.51
Growth inhibition based on T/C ratio, T/C ratio (%) ([1]; D28): 45%
